What all share (assay): cell-based or functional assay
Assay [1] has as its target T1, Growth and Differentiation Factor-11 (GDF11) (UniProt O95390).
T1 sequence (looked up): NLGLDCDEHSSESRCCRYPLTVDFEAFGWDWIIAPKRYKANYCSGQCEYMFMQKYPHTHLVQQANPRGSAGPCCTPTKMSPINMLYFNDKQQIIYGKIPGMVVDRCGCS

Assay [2] has as its target T2, Activin A (UniProt P08476).
T2 sequence (looked up): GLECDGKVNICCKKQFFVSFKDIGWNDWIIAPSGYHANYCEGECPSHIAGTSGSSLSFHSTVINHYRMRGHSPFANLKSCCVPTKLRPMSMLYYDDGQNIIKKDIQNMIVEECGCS

Assay [3] deals with T1, Growth and Differentiation Factor-11 (GDF11). The source holds these as a separate data set.
Assay [4] concerns the target T2, Activin A. The source holds these as a separate data set.

The results in this text go back to patent US20180037622A1.

Where two headings read alike, the source gives them in different places.

B1: ActRIIB(20-132)-hFc (Fc fusion, not shown: a dimerising Fc or GST)
chain: GRGEAETRECIYYNANWELERTNQSGLERCEGEQDKRLHCYASWRNSSGTIELVKKGCWLDDFNCYDRQECVATEENPQVYFCCCEGNFCNERFTHLPEAGGPEVTYEPPPTA
On to B1, for which the figures for the IC50 in assay [1] and in assay [2] were 87 ng/mL and 32 ng/mL, respectively.

B2: ActRIIB(22-131)-hFc (Fc fusion, not shown: a dimerising Fc or GST)
chain: GEAETRECIYYNANWELERTNQSGLERCEGEQDKRLHCYASWRNSSGTIELVKKGCWLDDFNCYDRQECVATEENPQVYFCCCEGNFCNERFTHLPEAGGPEVTYEPPPT
B2: the IC50 in assay [3] came to 71 ng/mL; in assay [4], 100 ng/mL.

B3: ActRIIB(20-131)-hFc (Fc fusion, not shown: a dimerising Fc or GST)
chain: GRGEAETRECIYYNANWELERTNQSGLERCEGEQDKRLHCYASWRNSSGTIELVKKGCWLDDFNCYDRQECVATEENPQVYFCCCEGNFCNERFTHLPEAGGPEVTYEPPPT
As to B3, the IC50 in assay [1] is 120 ng/mL; in assay [2], 44 ng/mL; in assay [3], 183 ng/mL; in assay [4] it was 201 ng/mL.

B4: ActRIIB(20-128)-hFc (Fc fusion, not shown: a dimerising Fc or GST)
chain: GRGEAETRECIYYNANWELERTNQSGLERCEGEQDKRLHCYASWRNSSGTIELVKKGCWLDDFNCYDRQECVATEENPQVYFCCCEGNFCNERFTHLPEAGGPEVTYEP
Turning to B4, the results for the IC50 in assay [1] and in assay [2] were 130 ng/mL and 158 ng/mL, respectively.

B5: ActRIIB-Fc A64 20-134 (Fc fusion, not shown: a dimerising Fc or GST)
chain: GRGEAETRECIYYNANWELERTNQSGLERCEGEQDKRLHCYASWANSSGTIELVKKGCWLDDFNCYDRQECVATEENPQVYFCCCEGNFCNERFTHLPEAGGPEVTYEPPPTAPT
Consider B5, for which the GDF11 Inhibition Activity (KI) in assay [1] worked out at 1000 nM. Moreover, in assay [2], the Activin Inhibition Activity (KI) turned out to be 1000 nM.

B6: ActRIIB(21-131)-hFc (Fc fusion, not shown: a dimerising Fc or GST)
chain: RGEAETRECIYYNANWELERTNQSGLERCEGEQDKRLHCYASWRNSSGTIELVKKGCWLDDFNCYDRQECVATEENPQVYFCCCEGNFCNERFTHLPEAGGPEVTYEPPPT
B6: the IC50 in assay [3] was 121 ng/mL; in assay [4] it was 325 ng/mL.

B7: ActRIIB(23-131)-hFc (Fc fusion, not shown: a dimerising Fc or GST)
chain: EAETRECIYYNANWELERTNQSGLERCEGEQDKRLHCYASWRNSSGTIELVKKGCWLDDFNCYDRQECVATEENPQVYFCCCEGNFCNERFTHLPEAGGPEVTYEPPPT
As for B7, the results for the IC50 in assay [3] and in assay [4] were 60 ng/mL and 43 ng/mL, respectively.

B8: ActRIIB(24-131)-hFc (Fc fusion, not shown: a dimerising Fc or GST)
chain: AETRECIYYNANWELERTNQSGLERCEGEQDKRLHCYASWRNSSGTIELVKKGCWLDDFNCYDRQECVATEENPQVYFCCCEGNFCNERFTHLPEAGGPEVTYEPPPT
Take B8: the half-inhibitory concentration (IC50) in assay [3] amounted to 69 ng/mL; in assay [4], 105 ng/mL.
